Source: patent US20230089620A1 (JIANGSU HENGRUI PHARMACEUTICALS, published 2023)

Columns and labels:
IL-2 (C013, Novoprotein) = IL-2 (C013, Novoprotein) (UniProt P60568 21-153); experiment: SPR (Biacore T200), antibody captured on Protein A chip, IL-2 analyte, 1:1 model
Description: The solutions flowed at a flow rate of 30 μL/min for dissociation for 300 s. The reaction signals were detected in real time to obtain association and dissociation curves. After the dissociation was completed for each assay cycle, the chip was washed and regenerated with 10 mM Gly-HCl, pH 2.0.

[1] = target: T1, biotin-labeled IL-2 with a human Fc-tag (Sanyou Biopharmaceutical, GenBank Accession No: P60568-1) (UniProt P60568 21-153, biotin-labeled (site not stated)); experiment: ELISA, antibody titrated and captured by anti-human IgG, biotin-IL-2-Fc 2 µg/mL
T1 construct: Bought reagent; also called biotinylated IL-2-Fc; not shown: human Fc-tag
T1 sequence (P60568 21-153 limits assumed, one chain of several): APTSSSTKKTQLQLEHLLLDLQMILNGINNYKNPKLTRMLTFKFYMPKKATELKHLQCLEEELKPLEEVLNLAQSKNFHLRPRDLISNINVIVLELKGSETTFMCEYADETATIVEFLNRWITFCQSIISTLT
Description: Anti-human IgG (STAR161, Bio-rad) was diluted to 2 μg/mL with PBS and added at 30 μL/well to coat an ELISA plate, and the plate was incubated overnight at 4° C. The plate was washed with PBST 3 times. The plate was blocked with 1% BSA for 1 h at room temperature and washed with PBST 3 times. […] 30 μL of the antibody solution was added to an ELISA plate, and the plate was incubated at room temperature for 1 h and washed with PBST 3 times. […] The plate was incubated at room temperature for 1 h and washed with PBST 3 times. 30 μL of secondary antibody NeutrAvidin-HRP diluted in a 1:6000 ratio was added. The plate was incubated at room temperature for 1 h and washed with PBST 9 times. 30 μL of TMB was added for color developing for 5-10 min at room temperature, then 30 μL of 2M HCl or H₂SO₄ was added to terminate the reaction. The plate was read for data by a microplate reader at OD 450.

[2] = target: T2, IL-2-His (CX66, Novoprotein) (UniProt P60568 21-153); experiment: Octet: reading at 230 s of IL-2-His (100 nM) + antibody (500 nM) on biotin-IL-2Rα-Fc sensor; lower = stronger blocking
T2 construct: Bought reagent; not shown: His tag
T2 sequence (P60568 21-153 limits assumed): as the sequence (P60568 21-153 limits assumed, one chain of several) above
Description: A Streptavidin biosensor (Fortebio, #18-5020) was immersed in 200 μL of KB buffer (PBS, pH 7.4, 0.05% tween-20, 0.1% BSA) for 60 s for the wetting treatment. Then, biotinylated IL-2Rα-Fc (CJ78, Novoprotein) was diluted to 10 μg/mL with the KB buffer, and the sensor was immersed in 200 μL of the solution for 150 s. The sensor was immersed in the KB buffer for 60 s to elute excess IL-2Rα. […] The sensor was immersed in the mixture for 300 s for association. […] The values at 230 s after the beginning of the binding were read.

[3] = target: T1, biotin-labeled IL-2 with a human Fc-tag …; experiment: competition ELISA: antibody titrated, pre-incubated with biotin-IL-2-Fc (5 µg/mL); competitor coated IL-2Rβ-Fc
Description: (§1) IL-2Rβ-Fc (CJ82, Novoprotein) was diluted to 8 μg/mL with PBS and added at 30 μL/well to coat an ELISA plate, and the plate was incubated overnight at 4° C. The plate was washed with PBST 3 times. The plate was blocked with 1% BSA for 1 h at room temperature and washed with PBST 3 times. […] The plate was incubated at room temperature for 1 h, and washed with PBST 3 times. 30 μL of secondary antibody NeutrAvidin-HRP diluted in a 1:6000 ratio was added, and the plate was incubated at room temperature for 1 h and washed with PBST 9 times. 30 μL of TMB was added for color developing for 5-10 min at room temperature, then 30 μL of 2 M HCl or H₂SO₄ was added to terminate the reaction. The plate was read for data by a microplate reader at OD 450.

[4] = target: T1, biotin-labeled IL-2 with a human Fc-tag …; experiment: Octet: biotin-IL-2-Fc sensor loaded with antibody (500 nM), reading at 230 s of IL-2Rβ-Fc (8000 nM) binding; lower = stronger blocking
Description: A Streptavidin biosensor (Fortebio, #18-5020) was immersed in 200 μL of KB buffer (PBS, pH 7.4, 0.05% tween-20, 0.1% BSA) for 60 s for the wetting treatment. […] The IL-2Rβ-Fc (CJ82, Novoprotein) was diluted to a final concentration of 8000 nM with the KB buffer, and the sensor was immersed in the antibody solution for association for 300 s. […] The values at 230 s after the beginning of the binding of IL-2Rβ-Fc were read.

[5] = target: T1, biotin-labeled IL-2 with a human Fc-tag …; experiment: competition ELISA: antibody titrated, pre-incubated with biotin-IL-2-Fc (1 µg/mL); competitor coated IL-2Rα-Fc
Description: as §1, with “IL-2Rα-Fc (CJ78,” for “IL-2Rβ-Fc (CJ82,”, “Novoprotein) (Accession #NP_000408)” for “Novoprotein)”, “0.5” for “8”

Sequence of IL-2 (C013, Novoprotein) (P60568 21-153 limits assumed): as the sequence (P60568 21-153 limits assumed, one chain of several) above

Binder	Kd (IL-2 (C013, Novoprotein)) [nM]	koff (IL-2 (C013, Novoprotein)) [s⁻¹]	kon (IL-2 (C013, Novoprotein)) [M⁻¹ s⁻¹]	EC50 [1] [µg/mL]	Values for blocking IL-2Rα at an Octet level [2]	IC50 [3] [µg/mL]	Values for blocking IL-2Rβ at an Octet level [4]	IC50 [5] [µg/mL]
D2-60 full-length fully human anti-IL-2 antibody (antibody, human IgG1, kappa, L234A L235A, V domains shown, Human IgG1 with LALA mutation, kappa light chain) VH: QVQLVQSGAEVKKPGASVKVSCKASGYTFTSYGISWVRQAPGQGLEWMGWISAYNGNTNYAQKLQGRVTMTTDTSTSTAYMELRSLRSDDTAVYYCAREYSSWYSGGMDVWGQGTTVTVSS VL: DIQMTQSPSSLSASVGDRVTITCRASQGISNYLAWYQQKPGKVPKLLIYAASTLQSGVPSRFSGSGSGTDFTLTISSLQPEDVATYYCQKYDSAPFTFGQGTRLEIKR	12.8	0.00651	509000	1.43	0.754	8.27	0.086	–
D3-68 full-length fully human anti-IL-2 antibody (antibody, human IgG1, kappa, L234A L235A, V domains shown, Human IgG1 with LALA mutation, kappa light chain) VH: QVQLVQSGPEVKKPGASVKVSCKASGYTFTSYGISWVRRAPGQGLEWMGWISAYNGNTNYAQKLQGRVTMTTDTSTSTAYMELRSLRSDDTAVYYCARDLQSPTYYYGSGVIDYWGQGTLVTVSS VL: DIQLTQSPSTLSASVGDRVTISCRASRAVSPWLAWYQHRPGQAPKLLIYAASSLQSGVPSRFSGSGSGTDFTLTISSLQPEDFATYYCQQYRSYPFTFGPGTTVDIRR	4.72	0.0546	1.16e+07	1.21	0.473	2.13	0.027	1.2
A3-21 full-length fully human anti-IL-2 antibody (antibody, human IgG1, lambda, L234A L235A, V domains shown, Human IgG1 with LALA mutation) VH: EVQLLESGGGLAQPGGSLRLSCAGSGFTFSSYAMSWVRQAPGKGLEWVSGITGTGYRTYYADSVKGRFTVSRDNSRNTVYLQMNSLRAEDTAVYYCVRESGHYYGWFDSWGQGTLVTVSS VL: QSALTQPPSVSGAPGQRVTISCTGSSSNIGAGYNVHWYQQVPGTVPKLLIDGKGNRPSGVPDRFSGSKSGTSASLAITGLQAEDEADYYCQSYDYMLSGSVVFGRGTKLTVLG	–	–	–	1.35	0.428	3.48	0.003	1.46
A2-22 full-length fully human anti-IL-2 antibody (antibody, human IgG1, kappa, L234A L235A, V domains shown, Human IgG1 with L234A/L235A (LALA), kappa light chain; expressed in HEK293) VH: QVQLVQSGAEVKKPGASVKVSCKASGYTFTSYYMHWVRQAPGQGLEWMGIINPSGGSTSYAQKFQGRVTMTRDTSTSTVYMELSSLRSEDTAVYYCAREDWMEYEYYYGMDVWGQGTLVTVSS VL: EIVLTQSPGTLSLSPGERATLSCRASQSVSNNYLAWYQQKPGQAPRLLIYGASSRATGIPDRFSGSGSGTDFTLTISRLEPEDFAVYSCQQYGSSPLTFGQGTRLEIKR	39.8	0.0527	1.33e+06	1.29	0.848	2.73	0.042	–
B2-15 full-length fully human anti-IL-2 antibody (antibody, human IgG1, kappa, L234A L235A, V domains shown, Human IgG1 with LALA mutation, kappa light chain) VH: EVQLLESGAEVKKPGASVKVSCKASGYTFTSYYMHWVRQAPGQGLEWMGIINPSGGSTSYAQKFQGRVTMTRDTSTSTVYMELSSLRSEDTAVYYCAREGNSSGYYNAFDIWGQGTMVTVSS VL: not shown	30.6	0.0448	1.46e+06	2.12	0.7	3.04	0.056	–
C2-53 full-length fully human anti-IL-2 antibody (antibody, human IgG1, kappa, L234A L235A, V domains shown, Human IgG1 with LALA mutation, kappa light chain) VH: EVQLVESGGGLVQPGRSLILSCAASGFTFDDYAMHWVRQAPGKGLEWVSGISWNSGSIGYADSVKGRFTISRDNAKNSLYLQMNSLRAEDTALYYCAKDQLRWGTYYYYGMDVWGQGTTVTVSS VL: DIQMTQSPSTLSASVGDRVTITCRASQSVSIWVAWYQQKPGKAPKLLIYKASSLERGVPTRFSGSGSGTEFTLTISSLQPEDFATYHCQQYDTGATFGQGTKVEMKR	0.267	0.00437	1.64e+07	0.73	0.41	1.44	0.017	0.659
